{
  "source": "paper PMC10592267",
  "molecular_target": "poplar cellulose synthase isoform-8 (CesA8) from hybrid aspen (hybrid aspen (poplar))",
  "experiment": "cryo-EM structure; purified CesA8 in 0.02% GDN, incubated with 20 mM MgCl2 and 5 mM UDP or UDP-Glc for 30 min on ice before grid preparation; non-uniform refinement with C3 symmetry",
  "data": [
    {"substance": "poplar cellulose synthase isoform-8 (CesA8) from hybrid aspen (enzyme)", "values": [
      {"measurement": "stoichiometry N", "value": 3}
    ]}
  ]
}
